This is an account of results in patent US20030148389A1 (SERONO GENETICS INSTITUTE S A, published 2003).

The target of the assay is T1, PAPAP protein (human).
T1 construct: Identified by expression cloning; COS-1 cells transfected with the cDNA clone were stained by the AP fusion probe; also called PAPAP polypeptide; PAPAP gene product
The assay is described as follows: in situ receptor binding assay: AP staining of COS-1 cells transfected with human brain cDNA pools, incubated with PAP-AP fusion medium. As for the experimental part:
Plasmid DNA was obtained from pools of ˜1000 colonies using the QiaPrep Spin Miniprep kit (Qiagen). These pools of DNA were then transiently transfected into COS-1 cells as follows. Two micrograms of DNA from each pool of human brain cDNAs was diluted into 200 ul of serum-free medium (DMEM medium from Gibco-BRL with no additives). The DNA was complexed to the PLUS reagent by adding 12 ul of (mixed prior to use) PLUS reagent to the DNA in serum-free medium. 200 ul of the DNA-PLUS-Lipofectamine reagent complexes was added to wells containing Cos-1 cells plated at 0.25×10⁵ cells per well in 6 well dishes (35 mm) the day prior to transfection (in complete medium containing no antibiotics). Previous to the addition of the DNA/lipofectamine/PLUS complex, the complete medium was removed from the cells and replaced with 800 ul serum-free medium. Cells were incubated at 37 degrees C. at 5% CO₂ for 3 hours; then the medium in each well was replaced with 2 ml of complete medium.
Two days after transfection, cell staining was begun. Culture medium was removed from cells in the 6 well dishes. […]

T1 sequence (chain, as listed by the source limits assumed): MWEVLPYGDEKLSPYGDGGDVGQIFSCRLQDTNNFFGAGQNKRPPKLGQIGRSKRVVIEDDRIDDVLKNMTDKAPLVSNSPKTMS

B1: g34872 peptide-alkaline phosphatase fusion protein (other)
chain: DAAQPARRARRTYEAYQPLERMWTCNYNQQKDQSCNHKEITSTKAERRSSGIIPVEEENPDFWNREAAEALGAAKKLQPAQTAAKNLIIFLGDGMGVSTVTAARILKGQKKDKLGPEIPLAMDRFPYVALSKTYNVDKHVPDSGATATAYLCGVKGNFQTIGLSAAARFNQCNTTRGNEVISVMNRAKKAGKSVGVVTTTRVQHASPAGTYAHTVNRNWYSDADVPASARQEGCQDIATQLISNMDIDVILGGGRKYMFPMGTPDPEYPDDYSQGGTRLDGKNLVQEWLAKRQGARYVWNRTELMQASLDPSVTHLMGLFEPGDMKYEIHRDSTLDPSLMEMTEAALRLLSRNPRGFFLFVEGGRIDHGHHESRAYRALTETIMFDDAIERAGQLTSEEDTLSLVTADHSHVFSFGGYPLRGSSIFGLAPGKARDRKAYTVLLYGNGPGYVLKDGARPDVTESESGSPEYRQQSAVPLDEETHAGEDVAVFARGPQAHLVHGVQEQTFIAHVMAFAACLEPYTACDLAPPAGTTDAAHPGYLEEALSLEGPEQKLISEEDLNSAVDHHHHHH
notes: Used as conditioned medium from stably transfected 293T cells; The vector has a secretion signal upstream of the insert; also called PAP-AP fusion protein; AP fusion protein
As to B1, the binding result was “binds”.
